Measurements as given in the supplement of paper PMC10065799, “High-throughput profiling of sequence recognition by tyrosine kinases and SH2 domains using bacterial peptide display” (eLife, 2023).

What was measured:
[1] = molecular target: EPHB2 (UniProt P29323); test: phosphorylation enrichment, bacterial display (enrichment ratio); higher = better substrate or ligand; peptides without Tyr show the background
[2] = molecular target: MERTK (UniProt Q12866); test: as above
[3] = molecular target: FGFR1 (UniProt P11362); test: as above
Sequence of FGFR1 (P11362 whole entry, looked up): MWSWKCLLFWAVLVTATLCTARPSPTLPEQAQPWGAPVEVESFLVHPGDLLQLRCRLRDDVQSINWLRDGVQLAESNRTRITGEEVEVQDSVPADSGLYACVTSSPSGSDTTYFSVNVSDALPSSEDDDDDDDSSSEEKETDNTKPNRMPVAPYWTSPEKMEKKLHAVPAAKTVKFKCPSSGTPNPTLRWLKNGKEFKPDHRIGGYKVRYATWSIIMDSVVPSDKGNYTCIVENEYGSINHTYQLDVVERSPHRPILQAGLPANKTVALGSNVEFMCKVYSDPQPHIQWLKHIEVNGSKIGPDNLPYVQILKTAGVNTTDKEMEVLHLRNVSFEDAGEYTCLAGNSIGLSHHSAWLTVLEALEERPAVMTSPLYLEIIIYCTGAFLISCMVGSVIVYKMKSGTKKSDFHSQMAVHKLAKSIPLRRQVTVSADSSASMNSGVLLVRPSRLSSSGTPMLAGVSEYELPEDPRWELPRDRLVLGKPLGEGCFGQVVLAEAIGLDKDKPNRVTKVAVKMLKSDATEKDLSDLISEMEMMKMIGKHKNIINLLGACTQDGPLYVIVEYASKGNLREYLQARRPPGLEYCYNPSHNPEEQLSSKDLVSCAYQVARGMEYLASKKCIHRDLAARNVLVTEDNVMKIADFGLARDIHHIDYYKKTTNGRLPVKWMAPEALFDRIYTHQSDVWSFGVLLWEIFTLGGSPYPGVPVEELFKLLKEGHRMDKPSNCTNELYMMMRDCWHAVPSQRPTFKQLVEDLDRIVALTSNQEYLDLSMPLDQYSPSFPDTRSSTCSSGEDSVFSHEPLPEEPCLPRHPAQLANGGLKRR

[4] = system: AncSZ; test: as above
[5] = system: Fer (mouse); test: as above
[6] = molecular target: EPHB1 (UniProt P54762); test: as above
[7] = molecular target: Fes (UniProt P07332); test: as above
[8] = molecular target: Hck (UniProt P08631); test: as above
Sequence of Hck (P08631 whole entry, looked up): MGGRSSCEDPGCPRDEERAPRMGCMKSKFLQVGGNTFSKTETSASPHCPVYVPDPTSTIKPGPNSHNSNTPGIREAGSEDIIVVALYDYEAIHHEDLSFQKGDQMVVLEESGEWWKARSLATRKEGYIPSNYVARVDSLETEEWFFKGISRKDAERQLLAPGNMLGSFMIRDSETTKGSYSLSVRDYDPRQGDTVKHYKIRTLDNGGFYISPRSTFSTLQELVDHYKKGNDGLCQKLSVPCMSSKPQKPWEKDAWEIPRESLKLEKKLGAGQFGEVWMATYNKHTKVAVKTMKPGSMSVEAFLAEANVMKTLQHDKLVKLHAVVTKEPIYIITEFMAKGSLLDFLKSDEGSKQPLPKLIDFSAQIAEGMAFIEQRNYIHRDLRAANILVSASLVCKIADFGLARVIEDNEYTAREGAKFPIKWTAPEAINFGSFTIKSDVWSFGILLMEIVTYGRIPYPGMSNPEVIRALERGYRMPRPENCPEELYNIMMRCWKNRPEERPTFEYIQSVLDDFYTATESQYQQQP

[9] = molecular target: FGFR3 (UniProt P22607); test: as above
Sequence of FGFR3 (P22607 whole entry, looked up): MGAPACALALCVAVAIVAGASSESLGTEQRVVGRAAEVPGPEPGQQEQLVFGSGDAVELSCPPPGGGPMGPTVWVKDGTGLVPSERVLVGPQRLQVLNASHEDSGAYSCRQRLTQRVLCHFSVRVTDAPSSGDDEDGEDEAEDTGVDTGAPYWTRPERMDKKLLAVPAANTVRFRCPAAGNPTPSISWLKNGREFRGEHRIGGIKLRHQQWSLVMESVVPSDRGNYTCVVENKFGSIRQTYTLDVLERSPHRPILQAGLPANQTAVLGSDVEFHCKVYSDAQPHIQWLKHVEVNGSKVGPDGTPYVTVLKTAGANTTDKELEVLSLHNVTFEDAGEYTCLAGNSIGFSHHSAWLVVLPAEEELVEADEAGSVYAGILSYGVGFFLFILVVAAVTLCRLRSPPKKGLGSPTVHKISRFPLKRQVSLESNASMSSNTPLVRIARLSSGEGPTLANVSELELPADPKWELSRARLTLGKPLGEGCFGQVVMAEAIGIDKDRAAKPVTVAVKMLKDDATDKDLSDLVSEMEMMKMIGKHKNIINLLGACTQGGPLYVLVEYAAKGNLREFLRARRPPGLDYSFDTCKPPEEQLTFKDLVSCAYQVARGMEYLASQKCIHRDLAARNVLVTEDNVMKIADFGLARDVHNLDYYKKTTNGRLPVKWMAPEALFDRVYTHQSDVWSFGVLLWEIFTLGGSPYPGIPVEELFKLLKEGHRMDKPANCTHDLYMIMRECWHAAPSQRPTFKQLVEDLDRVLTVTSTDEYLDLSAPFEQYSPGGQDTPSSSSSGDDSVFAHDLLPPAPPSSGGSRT

[10] = system: c-Abl (mouse); test: as above
[11] = molecular target: Jak2 (UniProt O60674); test: as above
[12] = molecular target: Fyn (UniProt P06241); test: as above
Sequence of Fyn (P06241 whole entry, looked up): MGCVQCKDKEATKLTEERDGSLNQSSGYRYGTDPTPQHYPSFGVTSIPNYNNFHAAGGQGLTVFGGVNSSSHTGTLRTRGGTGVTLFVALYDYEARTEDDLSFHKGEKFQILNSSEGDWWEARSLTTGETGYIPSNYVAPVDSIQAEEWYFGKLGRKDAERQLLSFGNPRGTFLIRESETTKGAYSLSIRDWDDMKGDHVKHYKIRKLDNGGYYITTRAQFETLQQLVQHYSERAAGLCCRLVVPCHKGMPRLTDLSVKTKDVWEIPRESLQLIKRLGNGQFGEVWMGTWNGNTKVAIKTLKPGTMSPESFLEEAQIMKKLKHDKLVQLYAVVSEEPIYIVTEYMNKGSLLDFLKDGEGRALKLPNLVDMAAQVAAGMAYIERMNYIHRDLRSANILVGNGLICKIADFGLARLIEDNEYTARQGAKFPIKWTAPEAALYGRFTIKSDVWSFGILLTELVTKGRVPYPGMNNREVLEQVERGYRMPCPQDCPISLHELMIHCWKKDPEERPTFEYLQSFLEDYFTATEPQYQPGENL

[13] = system: c-Src; test: as above
[14] = molecular target: Grb2 SH2 (UniProt P62993); test: SH2 binding enrichment of the phosphorylated peptide, bacterial display (enrichment ratio); higher = better substrate or ligand; peptides without Tyr show the background
Sequence of Grb2 SH2 (P62993 whole entry, looked up): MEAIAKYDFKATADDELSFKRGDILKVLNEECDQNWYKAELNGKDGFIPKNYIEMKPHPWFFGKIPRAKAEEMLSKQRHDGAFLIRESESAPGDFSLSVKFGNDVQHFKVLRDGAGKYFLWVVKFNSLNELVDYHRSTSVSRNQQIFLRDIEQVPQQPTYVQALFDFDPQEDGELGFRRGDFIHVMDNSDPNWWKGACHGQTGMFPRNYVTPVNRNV

[15] = molecular target: c-Src SH2; test: as above
[16] = molecular target: SHP2-C SH2; test: as above
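Wherever SH2 binding enrichment of the phosphorylated peptide, bacterial display is given: peptide library displayed on the E. coli surface as eCPX fusions, selected cells deep-sequenced, score is each peptide's frequency after selection divided by its frequency in the input.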
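Wherever phosphorylation enrichment, bacterial display is given: 11-residue human phosphosite peptides and single-mutation variants displayed on the E. coli surface, counted by deep sequencing, each peptide's frequency after selection divided by its frequency in the unselected input library; frequency after pTyr selection over input frequency; kinase dosed for 20-30% of maximal phosphorylation in three min.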

Sequence of MERTK (Q12866 whole entry, looked up): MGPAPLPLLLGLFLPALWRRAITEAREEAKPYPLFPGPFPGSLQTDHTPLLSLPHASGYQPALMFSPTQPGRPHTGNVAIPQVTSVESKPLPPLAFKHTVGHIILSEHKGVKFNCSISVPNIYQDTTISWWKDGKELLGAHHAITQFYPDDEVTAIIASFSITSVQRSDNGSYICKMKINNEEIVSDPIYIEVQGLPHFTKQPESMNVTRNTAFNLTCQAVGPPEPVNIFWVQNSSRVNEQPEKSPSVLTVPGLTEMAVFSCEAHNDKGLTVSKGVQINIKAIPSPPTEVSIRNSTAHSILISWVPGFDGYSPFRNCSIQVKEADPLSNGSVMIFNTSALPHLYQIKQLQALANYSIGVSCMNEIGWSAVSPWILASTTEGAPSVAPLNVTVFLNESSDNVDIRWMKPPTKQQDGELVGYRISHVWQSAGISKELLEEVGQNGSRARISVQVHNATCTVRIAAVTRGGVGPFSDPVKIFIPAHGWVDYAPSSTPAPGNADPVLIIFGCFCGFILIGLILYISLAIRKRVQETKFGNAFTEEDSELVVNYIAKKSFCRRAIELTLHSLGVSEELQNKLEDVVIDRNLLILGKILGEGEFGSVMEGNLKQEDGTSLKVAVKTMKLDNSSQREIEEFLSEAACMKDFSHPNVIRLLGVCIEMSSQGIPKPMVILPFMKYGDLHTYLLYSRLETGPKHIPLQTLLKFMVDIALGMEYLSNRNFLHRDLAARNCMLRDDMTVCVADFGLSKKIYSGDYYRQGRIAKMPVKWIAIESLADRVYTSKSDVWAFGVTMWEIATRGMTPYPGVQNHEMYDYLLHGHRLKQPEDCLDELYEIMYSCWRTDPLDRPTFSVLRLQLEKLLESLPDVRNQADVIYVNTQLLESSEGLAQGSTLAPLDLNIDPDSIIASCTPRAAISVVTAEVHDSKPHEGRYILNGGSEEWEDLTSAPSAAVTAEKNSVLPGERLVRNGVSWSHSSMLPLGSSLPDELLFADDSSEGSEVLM
Sequence of EPHB2 (P29323 whole entry, looked up): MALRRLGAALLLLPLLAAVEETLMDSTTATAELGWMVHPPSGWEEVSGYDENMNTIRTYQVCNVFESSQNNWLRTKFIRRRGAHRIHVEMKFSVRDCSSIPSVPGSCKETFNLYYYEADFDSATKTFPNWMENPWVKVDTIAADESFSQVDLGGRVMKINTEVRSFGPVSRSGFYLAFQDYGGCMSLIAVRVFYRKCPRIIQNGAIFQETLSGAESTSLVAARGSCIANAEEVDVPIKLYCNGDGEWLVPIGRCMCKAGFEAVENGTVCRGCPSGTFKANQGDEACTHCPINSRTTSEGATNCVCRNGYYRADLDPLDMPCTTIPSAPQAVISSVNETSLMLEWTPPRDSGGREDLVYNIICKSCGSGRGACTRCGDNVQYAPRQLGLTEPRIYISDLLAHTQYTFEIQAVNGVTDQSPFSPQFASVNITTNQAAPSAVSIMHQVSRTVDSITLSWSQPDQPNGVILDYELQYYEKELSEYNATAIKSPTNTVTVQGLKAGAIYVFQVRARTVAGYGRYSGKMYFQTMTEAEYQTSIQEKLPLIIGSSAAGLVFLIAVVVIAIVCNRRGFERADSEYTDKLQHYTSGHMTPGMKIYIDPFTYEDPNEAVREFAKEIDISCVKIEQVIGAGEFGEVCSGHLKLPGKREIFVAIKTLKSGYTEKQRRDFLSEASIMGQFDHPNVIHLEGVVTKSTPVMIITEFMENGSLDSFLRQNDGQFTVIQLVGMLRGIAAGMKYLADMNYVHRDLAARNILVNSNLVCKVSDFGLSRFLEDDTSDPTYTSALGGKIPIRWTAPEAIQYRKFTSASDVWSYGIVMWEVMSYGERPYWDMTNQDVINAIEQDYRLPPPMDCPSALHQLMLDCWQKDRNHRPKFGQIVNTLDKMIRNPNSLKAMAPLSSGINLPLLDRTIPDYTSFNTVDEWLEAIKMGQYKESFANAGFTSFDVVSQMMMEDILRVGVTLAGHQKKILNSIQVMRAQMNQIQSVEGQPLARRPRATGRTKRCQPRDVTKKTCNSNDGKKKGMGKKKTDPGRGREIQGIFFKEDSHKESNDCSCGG

Sequence | phosphorylation enrichment [1] | phosphorylation enrichment [2] | phosphorylation enrichment [3] | phosphorylation enrichment [4] | phosphorylation enrichment [5] | phosphorylation enrichment [6] | phosphorylation enrichment [7] | phosphorylation enrichment [8] | phosphorylation enrichment [9] | phosphorylation enrichment [10] | phosphorylation enrichment [11] | phosphorylation enrichment [12] | phosphorylation enrichment [13] | SH2 binding enrichment [14] | SH2 binding enrichment [15] | SH2 binding enrichment [16]
HVSISYDIPLT [GAB1_Y307_P311L] | 1.48 | 4.9 | 1.09 | 3.56 | 1.12 | 1.19 | 2.15 | 0.99 | 1.53 | 1.96 | 1.86 | 1.31 | 1.01 | 0.96 | 3.72 | 0.91
HYGNNYRDVLQ [MACC1_Y803] | 0.559 | 0.612 | 0.444 | 0.622 | 0.565 | 0.643 | 0.576 | 0.694 | 0.423 | 0.438 | 0.661 | 0.353 | 0.652 | 0.691 | 0.568 | 1.79
IDDNEYAFLKA [HNF4A_Y286_YF] | 0.597 | 0.538 | 1.44 | 1.54 | 0.659 | 0.652 | 1.32 | 0.98 | 1.43 | 0.922 | 1.13 | 0.8 | 0.728 | 0.79 | 0.469 | 0.546
IDGLEYLHSQG [STK11_Y166] | 0.499 | 0.368 | 0.445 | 0.737 | 0.426 | 0.578 | 0.906 | 0.413 | 0.637 | 0.574 | 0.796 | 0.619 | 0.417 | 0.779 | 0.478 | 0.57
IDSTPYGQWYE [RPS8_Y109_R110G] | 0.612 | 0.526 | 0.741 | 1.12 | 1.13 | 0.596 | 1.18 | 1.37 | 0.701 | 0.719 | 0.984 | 2.59 | 3.33 | 0.703 | 0.849 | 0.607
IFSGIYFKPES [L2HGDH_Y102_H98Y_YF] | 1.35 | 6 | 1.3 | 1.51 | 0.459 | 1.84 | 0.78 | 2.64 | 1.4 | 11.2 | 6.32 | 2.7 | 3.26 | 1.05 | 0.77 | 0.981
IGEGTYGQVYK [CDK13_Y716] | 1.59 | 0.714 | 0.553 | 0.605 | 0.813 | 0.889 | 0.822 | 11.8 | 0.508 | 0.593 | 0.822 | 13.5 | 9.38 | 0.667 | 0.471 | 0.944
IGGHAYGDQFR [IDH1_Y135_R132G_YF] | 0.324 | 0.306 | 0.351 | 0.464 | 0.259 | 0.3 | 0.567 | 0.36 | 0.405 | 0.418 | 0.499 | 0.296 | 0.317 | 0.826 | 0.571 | 0.852
IGHGSYAKVLL [PRKCZ_Y263_R260H] | 0.656 | 0.57 | 0.517 | 0.728 | 0.68 | 0.536 | 0.805 | 0.523 | 0.635 | 0.599 | 0.662 | 0.624 | 0.454 | 0.868 | 4.8 | 26.8
IGKAGYTDKMV [ENO1_Y236_V240M] | 0.352 | 0.372 | 0.377 | 0.523 | 0.3 | 0.445 | 0.545 | 0.376 | 0.367 | 0.407 | 0.52 | 0.33 | 0.336 | 0.82 | 0.513 | 1.47
IHETTYNSIKK [ACTA1_Y281_M285K] | 0.403 | 0.369 | 0.467 | 0.449 | 0.35 | 0.382 | 0.689 | 0.69 | 0.482 | 0.455 | 0.532 | 0.391 | 0.442 | 0.673 | 1.05 | 1.63
IIGNGYYFHVF [MYBPC3_Y1135_R1138H] | 0.559 | 0.288 | 0.587 | 0.946 | 0.491 | 0.518 | 1.22 | 0.396 | 0.803 | 0.667 | 1.19 | 0.349 | 0.362 | 0.834 | 0.542 | 0.81
IINENYDYLKV [NUP98_Y1664_G1669V] | 1.31 | 0.919 | 1.54 | 1.38 | 2.24 | 1.05 | 1.1 | 1.89 | 1.16 | 0.664 | 0.956 | 0.538 | 0.625 | 0.86 | 0.595 | 0.687
IITVHYVLEES [RYR2_Y4559_A4556T] | 0.577 | 0.498 | 0.594 | 1.17 | 0.579 | 0.777 | 1.22 | 0.517 | 0.831 | 0.794 | 1.02 | 0.53 | 0.523 | 1.45 | 1.37 | 1.56
IKIMGSSIRTI [IDS_Y490_Y490S] | 0.393 | 0.424 | 0.502 | 0.557 | 0.387 | 0.436 | 0.53 | 0.435 | 0.45 | 0.526 | 0.492 | 0.411 | 0.414 | 0.836 | 0.533 | 0.717
IKKFKYRIEEH [GJA1_Y137_G138R] | 0.389 | 0.345 | 0.402 | 0.653 | 0.361 | 0.392 | 0.83 | 0.336 | 0.495 | 0.449 | 0.717 | 0.398 | 0.363 | 0.847 | 0.557 | 0.77
IKRIDYEFVEM [ADA_Y84_A83D] | 3.22 | 0.375 | 1.02 | 0.89 | 1.82 | 6.08 | 1.18 | 0.477 | 0.742 | 0.622 | 0.932 | 0.469 | 0.404 | 0.967 | 0.5 | 0.56

Sequence | phosphorylation enrichment [1] | phosphorylation enrichment [2] | phosphorylation enrichment [3] | phosphorylation enrichment [4] | phosphorylation enrichment [5] | phosphorylation enrichment [6] | phosphorylation enrichment [7] | phosphorylation enrichment [8] | phosphorylation enrichment [9] | phosphorylation enrichment [10] | phosphorylation enrichment [11] | phosphorylation enrichment [12] | phosphorylation enrichment [13] | SH2 binding enrichment [14] | SH2 binding enrichment [15] | SH2 binding enrichment [16]
ILDEAYVMASV [EGFR_Y764] | 0.559 | 0.409 | 0.641 | 1.16 | 0.538 | 0.598 | 1.33 | 0.515 | 0.763 | 0.692 | 1.07 | 0.505 | 0.612 | 0.708 | 0.356 | 0.632
ILGRTYFVNHE [NEDD4_Y627_YF] | 0.398 | 0.355 | 0.43 | 0.83 | 0.429 | 0.526 | 0.854 | 0.379 | 0.605 | 0.735 | 0.758 | 0.392 | 0.467 | 0.865 | 0.463 | 0.656
ILLAGYLVMVI [SLC28A3_Y113] | 0.652 | 0.498 | 0.58 | 1.35 | 0.613 | 0.681 | 1.38 | 0.525 | 0.783 | 0.748 | 1.06 | 0.572 | 0.442 | 0.729 | 0.502 | 0.781
IMAYFYMCDRA [CASD1_Y382] | 0.641 | 0.494 | 1.09 | 1.11 | 0.614 | 0.803 | 1.45 | 0.401 | 1.23 | 1 | 1.46 | 0.421 | 0.487 | 1.14 | 0.87 | 1.02
INMKEYCKKDY [NTN1_Y490_K489E] | 0.462 | 0.364 | 0.447 | 0.824 | 0.615 | 0.461 | 0.944 | 0.477 | 0.595 | 0.661 | 1.29 | 0.451 | 0.429 | 0.723 | 0.498 | 0.501
IPVNGYQPVPA [ROR2_Y824_V819I] | 0.467 | 0.899 | 0.36 | 0.582 | 0.337 | 0.385 | 0.633 | 0.513 | 0.523 | 0.592 | 0.533 | 0.429 | 0.472 | 0.934 | 0.756 | 0.692
IQKKYYRAILE [CHD7_Y1218] | 0.586 | 0.341 | 0.424 | 0.649 | 0.384 | 0.396 | 0.761 | 0.432 | 0.485 | 0.468 | 0.563 | 0.407 | 0.324 | 0.976 | 0.637 | 0.636
IRKKFYRAILE [CHD7_Y1218_Q1214R_YF] | 0.58 | 0.618 | 0.426 | 0.569 | 0.42 | 0.386 | 0.62 | 0.455 | 0.444 | 0.568 | 0.797 | 0.57 | 0.658 | 0.619 | 0.433 | 0.458
ISHVAYRVLGK [TRRAP_Y892] | 0.365 | 0.34 | 0.423 | 0.634 | 0.338 | 0.31 | 0.597 | 0.348 | 0.402 | 0.477 | 0.426 | 0.394 | 0.416 | 0.775 | 0.488 | 0.732
ISMAGYSIPEL [EDAR_Y406_T403M] | 0.553 | 0.573 | 0.494 | 0.647 | 0.455 | 0.395 | 0.787 | 0.437 | 0.54 | 1.15 | 0.68 | 0.448 | 0.508 | 0.827 | 10.4 | 0.861
ISSLCYELLEE [TRPC6_Y896_R895C] | 0.654 | 0.777 | 0.748 | 2.07 | 0.924 | 0.986 | 1.66 | 0.747 | 1.23 | 1.13 | 1.36 | 0.597 | 0.928 | 0.843 | 0.701 | 0.769
ISSLRYELLEE [TRPC6_Y896] | 0.573 | 0.533 | 0.52 | 1.24 | 0.544 | 0.63 | 1.17 | 0.597 | 0.764 | 0.621 | 0.832 | 0.511 | 0.397 | 0.832 | 6.86 | 0.754
IVAREYFSDAD [CAMK2A_Y106_E109D_YF] | 0.491 | 0.378 | 0.461 | 0.744 | 0.418 | 0.48 | 0.922 | 0.415 | 0.583 | 0.8 | 0.793 | 0.378 | 0.438 | 0.8 | 0.467 | 0.589
IVAREYYSDAD [CAMK2A_Y106_E109D] | 0.647 | 0.41 | 0.657 | 1.04 | 0.589 | 0.775 | 1.13 | 0.525 | 0.633 | 0.828 | 0.959 | 0.473 | 0.559 | 0.869 | 3.1 | 0.833
IVAREYYSKAD [CAMK2B_Y107_E110K] | 0.602 | 0.425 | 0.43 | 0.768 | 0.405 | 0.467 | 0.85 | 0.507 | 0.504 | 0.639 | 0.697 | 0.423 | 0.525 | 0.75 | 2.01 | 0.749
IVEYAYNDKAI [PUM3_Y259] | 0.69 | 0.397 | 0.501 | 1.28 | 0.631 | 0.705 | 1.27 | 0.539 | 0.702 | 0.859 | 1.15 | 0.505 | 0.474 | 0.761 | 0.571 | 0.656
